Measurements as given in the nanobody polyreactivity screen of Harvey et al. (2022).

assay: yeast display, Sf9 membrane polyspecificity reagent, FACS + sequencing; frameworks hold sequencing errors
In short: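 Nanobodies came from a synthetic yeast display library in Saccharomyces cerevisiae BJ5465, induced with galactose for 36–48 hours and stained for 1 hour at 4 °C with 10% biotinylated, detergent-solubilized Sf9 membrane reagent. Cells were enriched on streptavidin microbeads and then FACS-sorted, with low and high (top ~1%) gates set on anti-HA fluorescence for expression and streptavidin fluorescence for reagent binding. Each polyreactivity label reflects the gate a clone came from. Genes were amplified by colony PCR, sequenced by MiSeq 2 × 250 and filtered by CDR length.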

Row | Sequence | polyreactivity (PSR sort gate)
1 | QVQHVESGGGLVQAGGSLRLSCGASGRIFRRYAMGWYSLAAVKEREFVAAISYGGGSTYYADSVKGRFTISRDNAKNTVYLQMNSLKPEDSAVYYCNADVPKSLLLYYPWGYGYWGQGTQVTVSS | low polyreactivity
2 | QVQHVESGGGLVQAGGSLRLSCSASGSTFGLYAMGWSRQAPGKETELVAVISWRGGSTYYADSVKGRFTISRDNAKNTVYLQMNSLKPEDTAVYYCAAYSRYPYVRYDYWGQGTQVTVSS | low polyreactivity
3 | QVQHVESGGGLVQAGGSLRLSSAASGFIFILYAMGWYTQAPGKERELVAAISSCGTRTYYADSVKGRFTISRDNAKNTVYLQMISLKPEDTGVYYCNTAWRDYVARLGGVGYDYWGQGTQVTVSS | high polyreactivity
4 | QVQHVESGGGLVQAGGSLRLSSAASGFTFNRYAMGWNSQAPGKESELVATITSGGNTYYADSVKGRFTLSRDNAKNTVYLEMNTLKPEDTAVYYCNNRGWYSVYRRDYWGQGTQVTVSS | high polyreactivity
5 | QVQHVESGGGLVQAGGSLRLTCAASGYIFYYNAMGWYRHAPGKEREMVAAINYSGTSTYYADSVKGRFTISRDNAKNTVYLQMNSLKPEDTAVFYCAKVPHYPLAGRLAILDYWGQGSQVTVSS | high polyreactivity
6 | QVQHVESGGGLVQAGGSLRLTCAATGFTFATYTMGWYRQAPGKERELFAAISSGGNTNYADSVKGRFTISRDNAKNTVYLQMNSLKPEDTAVYYCARGATLLQYYYWGVYEYDSWGQGTQVTVSS | low polyreactivity
7 | QVQHVESGGGLVQAGGTLRLSSAASGSTYRWYAMGSYRQAPGKERELVAAITFRGGRTYYADSVKGRFTISRDNAKNTVYLQMNSLKPEDTAVYYFNAVTYSSPYRFDYWGQGTQVTVSS | low polyreactivity
8 | QVQHVESGGGLVQAGRSLRLTSAASGIIFSGYAIGWYRQAPGKERHLVAAISSRCGGTYYADSVKGRFTISRDNAKNTVYFPLNSLKPEDTALYYCAAKRPACIQYSYYYWGQGTQVTVSS | high polyreactivity
9 | QVQHVESGGGLVQAGVSLRLSCAASGFTFHRNAMGWSTQAPGKERELLAAITMKGGSSTYYADSVKGRFTISRDNAKNTVYLQMNSLKPEDTAVYYCARDSYSYTFSKNSDPAEYDYWGQGTQVTLSS | low polyreactivity
10 | QVQHVESGGGLVQAGVSLRLSCAASGSTITYNAMGWYRQAPGKERELVAAITVSDGSTYYADSVKGRFTISRDNAKNTVYLQMNSLKPEDTAVYYCNAYAVYLRYLWYDYWGQGTQVTVSS | low polyreactivity
11 | QVQHVESGGGLVQARGSLRLSCAASGFTFLAYAMGWYRQAPGKERELVAAINSSDCTTHYADSVKGRFTISRDYAKNTVYLQMNSLKPVDTAVYYCNTDWAYLSDYWGQGTQVTVSS | low polyreactivity
12 | QVQHVESGGGLVQARGSLRLSCAASGSIFDLNAMGRYRQAPGKERELVAAISSGGGTYYADSVKGRFTISRDNSKNTVYLQMNSLKPVDTAVYYCKRVTRWTYNYWGQGTQVTVSS | high polyreactivity
13 | QVQHVESGGGLVQARGSLRLTCAASGLILSSNAMGWYRQAPGKERELVAAITWDGDRTYADSVKGRFTISRDNAKNTVYLQRNSLKPEDTAVYYCAADKQYYWYDWSYDYWGQGTQVTVSS | low polyreactivity
14 | QVQHVESGGGLVQEGGRLRLSCAASGITFGANTMGWSRQAPGKERELVAAITISGGITHYADSVKGRFTISRDNAKNTVYLQMNSLKPEDTAVYYCAAGAYWRLYPYRLRNVGRMYYWGQGTQVTVSS | low polyreactivity
15 | QVQHVESGGGVVQAGGSLRLSCAASVRTFRYYDMGWYRQAPGTERELVAAITSRGGSSYYADSVKGRFTISRDNAKYTVYLQMNSLKPEDTAVYYCNAYPVQIFYLGNRQYNYWGQGTQVTVSS | high polyreactivity
16 | QVQHVESGGRLVQAGGSLRLSCAASGSIFAAYAMGWYRQAPGKERELVAAISRSGASTYYADSVKGRFTISRDNAKNTVYLQMNSLKPVDTAVYYCAADTYAYPHDNYDYWGQGTQVTVSS | low polyreactivity
17 | QVQHVESGGRLVQAVGSLRLSCAASGFTFTRHAMGWYRQAPGKERDLVSRISSRGGSTYYADSVKGRFTISRDNAKNTVYLQMNSLKPEDTAVFYCAAPVRKSSYTRYDSWGQGTQVTVSS | high polyreactivity
18 | QVQHVESGGVIVQAGGSHRLSCAASGHIFFYYTMGWYRQAPGKERELVAGITIGGSTNYADSVKGRFTISRDTAKNTVYLQMNSLKPEDTAVYYCNVVKYVYIYSYWEYYYWGQGTQVTVSS | low polyreactivity
19 | QVQHVESGRGLVQAGGSLRLSCASSGFTFRRNAMGWYRQAPGKVRELVAVITSSARTNYADSVKGRFTISRDNAKNTVYLQMKSLKPEDTAVYYCNAYGYRQSSSDKYGYWGQCTQVTVSS | high polyreactivity
20 | QVQHVESRGGLVQAGGSLRLSCAASGFILYLNAMGWYRQAPGKERELVAAITSDGGSTYYADSVKGRFTISRDNAKNTVYLQMNSLKPEDTAVYYCAADNYPDEYDYWGQGTQVTVSS | low polyreactivity
21 | QVQHVESRGGLVQAGGSLRLSCAASGIILSPYAMGWYRQAPGKERELVAAISRSGGSTYYADSVKGRFTISRDNAKNTVYLQMNSLKPEDTAVYYCAARYHVYSNYYKYDYCGQGTQVTVSS | high polyreactivity
22 | QVQHVESRGGLVQAGGSLRLSCAASGLIFALYAMGWYRLAHGKERELVAAIDWSGGSTYYADSVKGRFTISRDNAKNTVYLQMNCLKPEDTAVYYCAADISSSPGNDYWGQGTQVTVSS | high polyreactivity

Row | Sequence | polyreactivity (PSR sort gate)
23 | QVQHVESVGGLLQAGGSLPLSCASSGSTFTGYAMGRYREAPGIVRELVAAISSSGGRTYYADSVKGRFTISRDNAKNTVYLQMNSLKPEDTAVYYCAVRPRYRPSGYVEYDSWGQSTQVTVSS | high polyreactivity
24 | QVQHVESVGGLVQAGGSLRLICAASGGTIDTYAIGWYRQAPGKERELVAGIDWSGGSTYYADSVKGRFTISRDNSKNTVYLQMNSLKPEDTAVYYCAADYYYPSQMDYWGQGTQVTVSS | low polyreactivity
25 | QVQHVESVGGLVQAGGSLRLSCAASGITFNYNAMGWYRQAPGKERELVAAIRGSDSTTYYADSVKGRFTISRDNAKNTVYLQMNSLKPEDTAVYYCAAVGVVPRKKSARVYYWGQGTQVTVSS | low polyreactivity
26 | QVQHVESVGGLVQAGGSLRLSCAASGRTFTSYDMGWYRQAPLTEREVVAAITGSYTYYADSVKGRFTISRDNAKNTVYLQFNSLKPEDTAVYYCAADEDDVVSGFLRYFYVSYYYWGQGTQVTVSS | low polyreactivity
27 | QVQHVESVGGLVQAGGSLRLSCAASGYIFIRYPMGCYRQANGKERELDAAITWSDGTTYYADSVKGRFTISRDNAKNTVYLQMNSLKPEDTAVYYCAADRKVESVSRYDYWGQGTQVTVSS | low polyreactivity
28 | QVQHVETGGGLVQAGGSLRLSCAASGFIFTRYVMGWSRQAPGKERELVAAISRIGASTYYADSVKGRFSISRDNAKNPVYLQMNSLKPEDTAVYYCNVVSGGYFEYEYCGQGTQVTVSS | high polyreactivity
29 | QVQHVETGGGLVQAGGSLRLSCAASGFLFYFNDKGWYRQAPGKERELVASITSGASTNYADSVKGRFTISRDNAKNTVYLQMNSLKPEDTAVYYCAAAYFWLYPYVEYDYWGQGTQVTVSS | low polyreactivity
30 | QVQHVETGGGLVQAGGSLRLSCDASGRIFYNYVMGWYRQAPGKERELVAAISFSSGNTYYADSVKGRFTISRDNAKNSVYLQMNSLTPEDTAVYYCNADIYTWFQIGGYQYDYWGQGTQVTVSS | low polyreactivity
31 | QVQHVHSGGGLVQAGGSLRLTCAASGSTFVGNAMVRYRQATGKERELVATISNSGGRTYYADSVKGRFTISRDNPKNTVYLQMNSLKAEDTAVYFCAADHPAFVPVYSFDYWGQGTQVNVSS | low polyreactivity
32 | QVQIEESGGGLDQAGGSLRLTCAASGFTIPSYTRGWYRQAPGKERELVAAISRSDGTTYYAYSVKGRFTISRDNAKNSVYLQLNSLKPEDTAVYYCNKAYKRYGYHYDYWGQGTQVTVSS | high polyreactivity
33 | QVQIEESGGGLVQAGGSHRLSCAASGSTSYWYAMGWSRQAPRKERELVAAISSDDSTNYADSVKGRFTISRDNAKNTVYLQMNSLKPEDTAVYYFNREHYLIRYDYWGQGTQVTVSS | low polyreactivity
34 | QVQIEESGGGLVQAGGSLRLSCAASGLIFYYYAMGWYRQAPRKERELVAVFTESGYSTYYADYVKGLFTISRDYAKNNDYLQMNRLKPEDTAVYYCAAHGRAYVGGVGDDYWGQGTQVTVSS | low polyreactivity
35 | QVQIEESVGDLVQAGGSLRLICAASGRTFPVYDMGWYRQAPGKERELVAAISRRAVRTYYADSVKGRFTISRDIAKNTVYLQMNSLKPEDTAVYYCNAVLRKITYDYWGQGTQVTVSS | high polyreactivity
36 | QVQIGESGGGLVQAGGSLRLSCAASGFIIGTNTMGWYRQAPGKERELVAAITSVGSTNYADSVKGRFTISRDNAKNTVYLQMNSLKPEDTAVYYCPATLYYQYGGDYWGQGTQVTVSS | low polyreactivity
37 | QVQILESGVCLVQARGSLRLSCAASGRTFRSNAMGWYRQAPGKERDLVAAITSSGGRTYYADSVKGRFTISRDNAKNTVYLQMNILKPEDTAVYYCNAVLRQYYRAYDYWGQGTQGTVSS | high polyreactivity
38 | QVQIVDSGGGLVQAGGSLRISCAASGYISRVYAMGWYRQAPRKERELVAAITRSTTYYADSVKGRFTISRDNAKNTVYLQMNSLKPEDSAVYYCNAVWASPGQVRMYYWGQGTQVNVSS | high polyreactivity
39 | QVQIVESAAGIVQAGGSLRLSCAASGSIFLLYAIGWYRQAPGKEMEFVAAITRGGGSTYYADSVKGRFTISRDNEKNIDYLQINSLIPEDTAVYYWYKGFQYHNGSLVVAYDYWGQGTQVTVSS | low polyreactivity
40 | QVQIVESAGGLVQAGGSLSLSCAASGITYVFYALGWYRQEPGKERELVSDMSWSGGITYYADSVMGRFTISRDNAKNTVYLQMNSLKPEDPAVYYCAATKRQTKYYGGTTDSIMYYWGQGTQVTVSS | low polyreactivity
41 | QVQIVESCGALVQAGRSLSLSCAASGSTFWDNVMGSYRQAPGKERELVAASTSGGSTNYADSVKGRFTISRDNAMNTDYLQLNSLIPEDTAVYYCAAGWYLYVLPYRYYYWRQGTQVTVSS | low polyreactivity
42 | QVQIVESGGALVQAGGSLSLSCAASRSTFYRNDMGWYRQAPGKEREFVAAISFRGGGTYADSVKGRFTISRDNAKITVYLQMNSLKPEDTAVYYCAADHLSYRRRYEYWGQGTQVTVSS | low polyreactivity
43 | QVQIVESGGGIVQAGGSLRLSCGASGRTFYYYAMGWYRQAPGKERELVASITWSGSSTTYADSVKGRFTISRDNSKNTFVLQLNRLKQQASAVYYCAADPYFWGYHFRRYGSWGQGTQVTVSS | low polyreactivity
